Sequences and labels used below:
B1: TPR t1 (parent)
chain: GACCAAUCUGCCCUCAGAGCUCGAGAACAUCUUCGGAUGCAGAGGAGGCAGGCUUCGGUGGCGCGAUAGCGCCAACGUCCUCAACCUCCAAUGCAUCCCACCACAUGAUGAUGCCUGAAGAGCCUUGGUUUUUUG

Data on 167 variants can be found in the RNAGym collection of RNA variant scans (doi:10.1073/pnas.2313332121).

The data set covers variants of B1. As to the kind of experiment: polymerase ribozyme fitness, log enrichment relative to wild type (log ratio); higher = more active; in vitro selection for triplet polymerase activity. The method in brief: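 Input and output libraries were sequenced on Illumina after a single in vitro selection round, run in triplicate on PCR-built, transcribed mutant libraries of each subunit of a heterodimeric triplet polymerase ribozyme. Selection annealed libraries to a biotinylated primer, the partner subunit and triplets, incubated them frozen at −7 °C, then gel-excised extended constructs for streptavidin-bead capture and RT-PCR. Genotypes with ≥10 input reads and ≥1 read per output were kept. Fitness is the logarithm, taken in base 2, of genotype enrichment divided by wild-type enrichment, using inverse-variance-weighted replicate averages.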
Take A5G A27U A46G: the “polymerase ribozyme fitness (log ratio)” value was -2.16.
To C4U G69C belongs -2.05.
The result for A5U A83U G120U U129C reads -1.35.
To A5U A37G C79G belongs -1.97.
Turning to A5C U106A, the “polymerase ribozyme fitness (log ratio)” value is -0.572.
Turning to A5G G63A U67G U96A C123U, the “polymerase ribozyme fitness (log ratio)” value is -5.12.
With A5G G45A C104A, the “polymerase ribozyme fitness (log ratio)” value is -2.92.
To A5G C82U belongs -0.0686; to A5C G69U C72U C79A U92A, -3.86.
Turning to A5C G61A, the “polymerase ribozyme fitness (log ratio)” value was -0.269.
Take A5G C79A C115G U125G U131A: the “polymerase ribozyme fitness (log ratio)” value is -1.22.
The result for A5G C12G G42U reads -0.303.
Consider A5U A29U C94U, for which the “polymerase ribozyme fitness (log ratio)” value is -2.08.
Consider A5G C8U U54A A111U, for which the “polymerase ribozyme fitness (log ratio)” value is -2.21.
The result for A5U A6U A46C C104U C123A reads 0.565; that for A5G U87C, -0.474; that for A5C U14C U54A C88U C124A, 1.25.
To A5U C13U A16G G69C U92G C123A U132A belongs -2.65; to A5U A37G C72U, -0.735.
To A5C C62U C85U C123A belongs -1.09.
Regarding A5G G60A G120U, the “polymerase ribozyme fitness (log ratio)” value turned out to be 0.955.
The result for A5C C11G G44A C56A U112A reads -0.571; that for A5C A46U A83C C86G C114A G117A, -6.85.
To A5C U9G C15G A43U A95U G110U belongs -4.99.
To A5G G45A G69U C104A belongs -1.05; to A5G G93A, -1.17.
A5U A91C U96G A121G: the “polymerase ribozyme fitness (log ratio)” value is -0.932.
The result for A5C G39C C70U G113A G120A C123A reads -2.68; that for A5G C53U G71A G113A, -2.7; that for A5G C15U G93U G117U, -1.5.
Take A5U C11G C56U: the “polymerase ribozyme fitness (log ratio)” value was -0.378.
Take A5C C64U G77U G110A: the “polymerase ribozyme fitness (log ratio)” value is -3.72.
Regarding C4U U7C A43U C62G, the “polymerase ribozyme fitness (log ratio)” value was -4.93.
On to A5G G71A, for which the “polymerase ribozyme fitness (log ratio)” value is -0.188.
Turning to A5C C64U, the “polymerase ribozyme fitness (log ratio)” value is -0.365.
The result for A5G C15U G48U C104U C124A reads -0.12.
For the variant A5G G60A G117A G135C, the “polymerase ribozyme fitness (log ratio)” value is -0.941.
On to C4U G57A G61A, for which the “polymerase ribozyme fitness (log ratio)” value is -0.861.
With A5C C28A G47U C53G G93U, the “polymerase ribozyme fitness (log ratio)” value is -7.47.
The result for C4U G45U reads -1.35.
The result for A5U A43G G44A G52C G63C C124U G128U reads -4.22.
The result for A5C C13U G44C G48U C115U reads -3.4; that for C4U G44A C73U A75U C94A, -2.78; that for A5U A50U A105U A119G, -1.86.
With A5G C94A U129G, the “polymerase ribozyme fitness (log ratio)” value was -1.49.
For the variant A5C G107A, the “polymerase ribozyme fitness (log ratio)” value was -5.67.
Regarding A5U A68G C82G, the “polymerase ribozyme fitness (log ratio)” value was -3.79.
Consider A5G C11A U81C, for which the “polymerase ribozyme fitness (log ratio)” value was -1.86.
Take A5C C94U G110A: the “polymerase ribozyme fitness (log ratio)” value was -2.08.
A5U C11G C94U C104A G110C: the “polymerase ribozyme fitness (log ratio)” value was -5.6.
Turning to A5U A18U C94G A105G C123G, the “polymerase ribozyme fitness (log ratio)” value was -6.51.
For the variant C4U U38G, the “polymerase ribozyme fitness (log ratio)” value was -1.16.
To A5U A121U belongs 1.1; to C4U U129A, -2.07; to A5G G10A C72A A91U, -1.75.
To C4U G42C G60U C88G C99G A111U U134A belongs -5.4.
To A5G U9C C40U C56U U59A belongs -0.739; to A5G C53A G61A C101U, 0.0588; to A5U A84G U96C G113U, -4.28.
On to A5C A37U G127U, for which the “polymerase ribozyme fitness (log ratio)” value was -2.11.
As for C4U U14A, the “polymerase ribozyme fitness (log ratio)” value was -2.88.
For the variant C4U G35U C62U C98A C123G, the “polymerase ribozyme fitness (log ratio)” value was -2.75.
For the variant C4U G52C G63A G110A, the “polymerase ribozyme fitness (log ratio)” value is -4.4.
In the case of A5C C12G U14A G63U, the “polymerase ribozyme fitness (log ratio)” value is -2.95.
As for A5G C13U G36C C62U C85A U112A G117U, the “polymerase ribozyme fitness (log ratio)” value was -1.72.
Consider A5C C56U G69U G120A G135C, for which the “polymerase ribozyme fitness (log ratio)” value was -1.06.
To A5G G60C belongs 0.0339; to A5C G44U G77U, -2.37; to A5C C8G A37U U38C A43C G57A G110A C124U, -5.51.
To C4U G42A C114G belongs -3.21; to A5G U109G, -4.99; to A5C A37G C88A, -3.94.
As for A5C A24G U87C, the “polymerase ribozyme fitness (log ratio)” value was -3.15.
Regarding C4U G61A C89A, the “polymerase ribozyme fitness (log ratio)” value was -1.4.
Regarding A5C U112A C114A, the “polymerase ribozyme fitness (log ratio)” value is -1.8.
To C4U G52C belongs -0.368; to A5G G44A, -0.648.
On to A5C A24G A27G, for which the “polymerase ribozyme fitness (log ratio)” value is -4.69.
A5G C8U A95C: the “polymerase ribozyme fitness (log ratio)” value was -0.636.
A5G C12A C73A: the “polymerase ribozyme fitness (log ratio)” value is -0.594.
In the case of A5U A29U, the “polymerase ribozyme fitness (log ratio)” value is -1.95.
A5C C76U: the “polymerase ribozyme fitness (log ratio)” value was -0.646.
The result for A5G G47U A50C C62U A105C reads -6.17; that for A5C A37U G69A C123A G128A, -4.31.
For the variant A5G G77U G113U G122C, the “polymerase ribozyme fitness (log ratio)” value is -3.27.
The result for A5G G57A G63A reads -2.06; that for A5C A50C U96G, -1.64; that for A5G A95U A121C G128A U130C, -0.519.
For the variant C4U U14A G69A C101U, the “polymerase ribozyme fitness (log ratio)” value was -5.32.
For C4U G120C, the “polymerase ribozyme fitness (log ratio)” value is -0.0314.
To C4U U9A C82A belongs 0.0858; to A5C G51A U78C G113U U133G, -6.24.
To A5C A118G belongs -0.499; to A5C A46U, -1.95; to A5C A37C G60C C79U C123A, -0.023.
The result for A5G A6G C11U C28U G120U reads -2.3; that for A5C G17A, -4.76.
With A5U A37U U55A C123A, the “polymerase ribozyme fitness (log ratio)” value was 0.562.
For A5G U33A C124U, the “polymerase ribozyme fitness (log ratio)” value was -3.02.
The result for A5U C12U U21G A27C A46G A90G G120U reads -2.99.
For the variant A5C G35U C56U G63A C70U U109A G117C U125G U130A, the “polymerase ribozyme fitness (log ratio)” value is -6.63.
A5U A41C U55C U59C C82G G120C U125A: the “polymerase ribozyme fitness (log ratio)” value is -2.81.
In the case of C4U U9C A41U, the “polymerase ribozyme fitness (log ratio)” value was -0.927.
On to A5G C8U C72G G110A, for which the “polymerase ribozyme fitness (log ratio)” value is -1.25.
On to A5U C13A C28U C49U C56U G120C G135U, for which the “polymerase ribozyme fitness (log ratio)” value is -5.49.
To A5U C8G C15A A41U G48A C49U G113A U129C belongs -5.44; to A5U A46U G47C A50G C53U C86A C115G, -5.37.
The result for A5C C73A reads -0.312; that for A5G C49U C73U, -0.864; that for A5G G51A C86G, -2.82.
Take A5C C89U: the “polymerase ribozyme fitness (log ratio)” value was -0.689.
To A5C C8U C34A C79U C101G belongs -3.49.
To A5C G42U G61C U78G C80A A84U C104G G113C A119U U125C U133A belongs -7.58; to A5C C73G C102A, -3.71.
To A5G A43G C56U C80U belongs -2.61; to A5C C53A G71U C98U U112A G120U, -6.47; to A5C U55G, -0.672.
With A5G C15U C70U C101U C124U, the “polymerase ribozyme fitness (log ratio)” value is -0.0911.
The result for A5C A84G reads -1.64; that for A5C G17C G44A A83U G120A U131A, -4.99.
For the variant A5C C56A, the “polymerase ribozyme fitness (log ratio)” value is -0.668.
To A5C C73G A84U belongs -2.25; to A5C C62U C72G C101G U106G U129C, -5.17; to A5C C34U G63C U129G, -4.67.
For the variant A5U A41U G120C, the “polymerase ribozyme fitness (log ratio)” value is -1.47.
Turning to A5G U9C U32C C40G G60U, the “polymerase ribozyme fitness (log ratio)” value is -1.01.
As to A5G A6G G52A A83U, the “polymerase ribozyme fitness (log ratio)” value is -2.69.
As to C4U U9G U54C C76A, the “polymerase ribozyme fitness (log ratio)” value is -0.732.
For A5C G17A C82A, the “polymerase ribozyme fitness (log ratio)” value is -5.14.
The result for C4U U112C reads 1.38.
Turning to A5G C88G, the “polymerase ribozyme fitness (log ratio)” value was -1.27.
Regarding C4U U54A C72G C82A C114A, the “polymerase ribozyme fitness (log ratio)” value is -3.49.
The result for A5C U7G U54A C72U G110C reads -4.62; that for A5U A95C G120C, 0.108; that for A5C U9C C86U A100U G135U, -1.74.
The result for A5U A18G C20G C82U C94U A111C U112G A121C reads -6.26.
To A5C G69A U129A belongs -4.05.
For the variant A5U C11A C102A, the “polymerase ribozyme fitness (log ratio)” value is -4.33.
The result for A5G C22A A119G reads -4.13; that for A5G G63U, -0.893.
Consider A5G G63C, for which the “polymerase ribozyme fitness (log ratio)” value was -0.273.
To A5C A6U A50U C56U A121U belongs 1.17; to A5U A18U, -2.62.
Take A5U A18G: the “polymerase ribozyme fitness (log ratio)” value is -2.05.
The result for C4U G42A G45U G47A reads -4.19.
To A5C U14A A46U belongs -4.39; to A5C C13U C88A C123U, 1.09; to A5G A118U C123G, 2.09.
As for C4U G58C C97G, the “polymerase ribozyme fitness (log ratio)” value is -4.76.
Regarding A5U C11U U54A C89A, the “polymerase ribozyme fitness (log ratio)” value was -2.83.
To A5G C49G G127C G128A belongs -2.99.
The result for A5G A18U G42U G52C G69C reads -3.05.
To C4U G60C A83U A84C C86A belongs -2.24; to A5U A18C G57U, -2.21.
Take A5G U9G C12A U78C G93A: the “polymerase ribozyme fitness (log ratio)” value was -0.124.
To A5C U7A C8A C80U belongs -1.09; to A5G G44C A74U U96G, -2.57.
To C4U U9C C34G A100U belongs -4.68.
Turning to A5U C12U, the “polymerase ribozyme fitness (log ratio)” value was 0.00871.
A5G C13G A37G: the “polymerase ribozyme fitness (log ratio)” value was -1.28.
To A5G C64G G69A A83U belongs -4.33; to A5C C8U C34A A75U C79U C101G, -3.24.
To A5G A83U belongs -1.18; to A5U C11G A29U, -3.66.
As to C4U U38G U112A, the “polymerase ribozyme fitness (log ratio)” value was -0.207.
The result for A5U C11G C12U G61U A111C G113A reads -4.88; that for A5U A66U A75G C76A C94A G120A U130G, -5.41.
